From the DeepSol protein solubility set come the findings set out here.

This data set in a line: soluble on expression in E. coli; label from the status in PepcDB or PDB records.
“KKNLLYLGLTGYLLFALCTRLQAQTDSLQAHRYVTRATMYGVGFTNVFDTYLSPQEYKGIDFRISRETIRMTKLFDGNVSVQNFFQADVGYTHNRADNNNTFSGLVNWNYGLHYQFRLTENFKLLAGGLFDVNGGFVYNLRNSNNPASARAYVNLDASGMAIWHLKIKRYPMVLRYQVNVPMIGLMFSPHYGQSYYEIFSLGNSSGVIQFTSLHNQPSLRQMLSVDLPIGYTKMRFSYLADLQQSNVNGIKTHTYSHVFMVGFVKDLYRVSNKKGANLPPSVRAY”: the “soluble on expression in E. coli” value was “not soluble”. “MSLQRESLDILKLSQAIKKCDAILIGAGAGLSSAAGLSYSGNRFKKYFNDFITKYHLQDMYSAGFYPYPSLEKYWAYWSRHIYYNRYLEAPKDTYKKLLNLLINKDYFVITTNVDHQFQIAGFIKEKLFYTQGDYGLWQCSKPCHQKTYDNYETVVTMIKQQHDLKIPSSLIPYCPICNAPMTMNLRCDKTFVQDSGWYHAQERYYHFLNKYHYSKIVYLELGVGYNTPGIIKYPFWQLTIENPKAIYACINQDIIDLPSELKKQTIMINDNIHNVLSSLEKLLEGHHHHHH”: the “soluble on expression in E. coli” value is recorded as “soluble”. Take “MAHHHHHHMLNVLCDIKRYNGFDYYKCPRTILKKTCNFVKRENVADSIFIGNEIEFFIFDKVNFGLDDYDSYLKVYDREAFSCKNGGSGGSAVGSGSHDTTAGVACIACAGHVPPNDDSKKVKKKCGYFATDPYDTSNMIKLRICRILNSLNVHVQKYHHEVSTSQHEISLKYFDAVKNADNLIITKQVIKSTVHNFNRTATFMPKPLVSDNGSGLHCNISLWKDNKNIFFADDPSTFFLSKEAFYFMNGIIKHAKALQAFCNSTMNSYKRLVPGFETCQKLFYSFGSRNAVIRLSMINYSNPSEKRIEFRLPDYANSPHLVLAAIILAGYDGIKSKEQPLVPFESKDNNFFISSIFSNYVENTQNFKTLTHALEGYDTIHDVKKSPEFVNFFTCKEPESICFSLEESLDALEKDHAFLTVDGIFTEVRFVGKCGEAPNTVDTYLPTYPCVLPFVLPICLPHLFSPFFPTAGSH”: the “soluble on expression in E. coli” value was “not soluble”. For “AHPLENAWTFWFDNPQGKSRQVAWGSTIHPIHTFSTVEDFWGLYNNIHNPSKLNVGADFHCFKNKIEPKWEDPICANGGKWTISCGRGKSDTFWLHTLLAMIGEQFDFGDEICGAVVSVRQKQERVAIWTKNAANEAAQISIGKQWKEFLDYKDSIGFIVHEDAKRSDKGPKNRYTV”, the “soluble on expression in E. coli” value is “soluble”.

Consider “MSLKIAKVEALSVAMGDGTGWMPTSAFVRITAEDGTVGWGEASPMLGGIASLGVVARDIAPFLEGQEVLDHAVLLDRMMHRLVKLGPEGIATAALAACDIALWDLKGKLLGQPIYKLLGGAWRTRLPCYSSIGGNAARSVDEVVREVARRVEAEQPAAVKIRWDGDRTRCDVDIPGDIAKARAVRELLGPDAVIGFDANNGYSVGGAIRVGRALEDLGYSWFEEPVQHYHVGAMGEVAQRLDITVSAGEQTYTLQALKDLILSGVRMVQPDIVKMGGITGMMQCAALAHAHGVEFVPHQTQPGVGHFANIHVLSTLMHMTKPVELADRWDRGRPVFRNPAEPVDGHFALGDAPGLGIVVDEDELASRATEITVGRDQRPPAGGQYEGHHHHHH”, for which the “soluble on expression in E. coli” value is “soluble”. Turning to “NPGENPKAQKALKQLFDGAQKDDIHLYKISGYRSYPTQVKLYNNYVKRDGKKAADKYSARPGYSEHQTGLTFDVGGVDSDKNLYASFGKTEEGRWIAKNAHNYGFIIRYPKNKESITGYQYEPWHLRYLGKKKATKVYKSGETLEEFVGLK”, the “soluble on expression in E. coli” value is “not soluble”. On to MEEQNANQMLTDILSFMKSGKRAAALEHHHHHH, for which the “soluble on expression in E. coli” value is “soluble”. Consider “MSTTFPLHTESFMLLDSGCLTNSDYFLPFALTDVLTTFSGMQHQPIIHFWQLDQAMILGMKDTRVPHLKEGIASLQENDYSVVVRNAGGLGVIADSGILNVSLILPNNSEHKLSIDAAYELMWAWLRQSFPEKEIDAFEITTSYCPGTYDLSIGGQKFAGIAQRRVKDGISVMIYISVNGNQLARGEVVRDFYLAGLQEQFGENGYPPVDPAVMANLETLIETPLTIDAVKTRLIEALPQQFEKSIDPNLTEPIITSEWFQTNLTVQLEKMAQRNALIKGEIL”, for which the “soluble on expression in E. coli” value is reported as “not soluble”.

As to “MGSDKIHHHHHHMAAVLLTGHGGPEKLVYRTDVKVPSPDPGEVLVEVSACGMNNTDVWVRQGAYGTEEDAAAVSTWRRQGNTLVFPRIQGTDTVGTIVSVGEGVSPERIGERVMVDFSIYNRDDDSLADIDYMGHGRDGGYAEYQTVPAENAHVVDTDMSDVELATFCCAYLTGEQMLERAGLKAGERVLVTGASGGVGSGIVQLARARGAIPYAVVGKGKEQAVLDIGAEAVITRGVADLPRAVAEVTGGQPIDVVADLVGGAIFNDLLRILRPEGRYTTAGAIAGPVVQLDLRTMYLKQLQLHGSSQGTRADFRRIVGYIEAKKIRPLVGGVYRLSDFHRAQADFVAKDFVGKLVVVPDAIAERQA”, the “soluble on expression in E. coli” value is on record as “not soluble”. Consider “MSKILDVQGIVKRATELNDFGHLLEHVPYAKFIGMKVERFGDELIFKLPAKDDNIGNPILPAIHGGVIAGFMEMSAIVQLMVFMQTAKVPKVVDFSIDYLRAGLHKDSFAECRITRQGRRVANVSINCWQTNRKQLIATARAHFLIDLEHHHHHH”, for which the “soluble on expression in E. coli” value was “not soluble”. As for “MKRDDLMQIIKRDGHVADFDPDKIYQAIIKAARTVYVIDDTWRQNLTHVTKKVVIDLEEAHVERPTINMVQSLVENRLMDAGYITIAEHYISYRLQRDLERNGYGDKIVVHLRFEQIK”, the entry is “soluble”; as for “MSTTDDTHNTLSTGKCPFHQGGHDRSAGAGTASRDWWPNQLRVDLLNQHSNRSNPLGEDFDYRKEFSKLDYSALKGDLKALLTDSQPWWPADWGSYVGLFIRMAWHGAGTYRSIDGRGGAGRGQQRFAPLNSWPDNVSLDKARRLLWPIKQKYGQKISWADLFILAGNVALENSGFRTFGFGAGREDVWEPDLDVNWGDEKAWLTHRHPEALAKAPLGATEMGLIYVNPEGPDHSGEPLSAAAAIRATFGNMGMNDEETVALIAGGHTLGKTHGAAAASHVGADPEAAPIEAQGLGWASSYGSGVGADAITSGLEVVWTQTPTQWSNYFFENLFKYEWVQTRSPAGAIQFEAVDAPDIIPDPFDPSKKRKPTMLVTDLTLRFDPEFEKISRRFLNDPQAFNEAFARAWFKLTHRDMGPKARYIGPEVPKEDLIWQDPLPQPLYQPTQEDIINLKAAIAASGLSISEMVSVAWASASTFRGGDKRGGANGARLALAPQRDWDVNAVAARVLPVLEEIQKTTNKASLADIIVLAGVVGIEQAAAAAGVSISVPFAPGRVDARQDQTDIEMFSLLEPIADGFRNYRARLDVSTTESLLIDKAQQLTLTAPEMTVLVGGMRVLGTNFDGSQNGVFTDRPGVLSTDFFANLLDMRYEWKPTDDANELFEGRDRLTGEVKYTATRADLVFGSNSVLRALAEVYACSDAHEKFVKDFVAAWVKVMNLDRFDLQ”, “not soluble”; as for “MILFDFKDLSAATSWYGVNDTVMGGLSRSKLTISPLGYGIFSGHVSLANGGGFASVRCEFEHVNVAEFTGIYLDLDSDRSKQYKVNLKDADTPQSTVYQAIMPAPTHQTFGLSGASAIHWQRIEIPFTNFHPQCRGKPIAGAAIDLRRLTSIGLVIGAQQSGDFALKIKSIGCYLEHHHHHH”, “soluble”.

Turning to “MGSDKIHHHHHHKDYKTFPDKYTLSSVDVGGMTAKEAKKAIKKAIDKYQIKVKLDDAEFEMNAEDLGLEYNEKADMQTLINAANRNKVPDKQVKLFNMKKGDEMQNALVDSYITAMTEAQTDSTSNTDNDTDDTKQADKSDAEIFDIKTVVPYRATITYNADAGQFEGVDGVSGDAPIYDKAATKLSSAVKEMKKKAELESSTGYVEGEKAADSDAVKKALKEADAYLDVTVQRHL”, the “soluble on expression in E. coli” value is “not soluble”. In the case of “MIDCAIIGGGPAGLSAGLYATRGGVKNAVLFEKGMPGGQITGSSEIENYPGVKEVVSGLDFMQPWQEQCFRFGLKHEMTAVQRVSKKDSHFVILAEDGKTFEAKSVIIATGGSPKRTGIKGESEYWGKGVSTCATCDGFFYKNKEVAVLGGGDTAVEEAIYLANICKKVYLIHRRDGFRCAPITLEHAKNNDKIEFLTPYVVEEIKGDASGVSSLSIKNTATNEKRELVVPGFFIFVGYDVNNAVLKQEDNSMLCKCDEYGSIVVDFSMKTNVQGLFAAGDIRIFAPKQVVCAASDGATAALSVISYLEHH”, the “soluble on expression in E. coli” value is reported as “soluble”.

As for “MGSDKIHHHHHHMLSRTADNLYWMTRYVERAENMARILDVSYRMSQLPRNGTDAAVEWEPALIISGQKPDFETRFEEITAGNVIAYMALDPENPSSIVSTLHAARENARAERFVLPQEMFEGLNATWLELQSLSYARLVDWGFREFFEWVKERSHQFLGTTIGTMLQTDGFHFTRLGTFIERADNTARLLDVKYHVLMPDENRLDEAVDYYQWGAVLRAMSALKAYRMVYRDTIKPRQVIDLLTLKREFPRSLHLCYENLHDLLEHLAPGAECTRLTGEMHAKLRYGRIQDITRRGLHRFLTDFITHNAAVSAEIGRTFHLVADIGVQTPVKEAKEAKRADDGGEAEEAGSVQQQRQ”, the “soluble on expression in E. coli” value was “not soluble”. The result for “MSVSGLKAELKFLASIFDKNHERFRIVSWKLDELHCQFLVPQQGSPHSLPPPLTLHCNITESYPSSSPIWFVDSEDPNLTSVLERLEDTKNNNLLRQQLKWLICELCSLYNLPKHLDVEMLDQPLPTGQNGTTEEVTSEEEEEEEEMAEDIEDLDHYEMKEEEPISGKKSEDEGIEKENLAILEKIRKTQRQDHLNGAVSGSVQASDRLMKELRDIYRSQSYKTGIYSVELINDSLYDWHVKLQKVDPDSPLHSDLQILKEKEGIEYILLNFSFKDNFPFDPPFVRVVLPVLSGGYVLGGGALCMELLTKQGWSSAYSIESVIMQINATLVKGKARVQFGANKNQYNLARAQQSYNSIVQIHEKNGWYTPPKEDG” reads “soluble”; that for “MAGYVGDVAIAYDRDLGHVLFEQYASDIARRTAGKPVRDVLEVASGTGIVTRQLRNVLPGDAQLTAIDISDSMMEVARTKFLPHEQVTFQVANAVALPFDDRAFDTVVCQFGVMFFDKDKAFQETHRVLRQGGRYLFSVWDSRDYNPYASLTFEVMKQFFPSDPPRFLESTVSSFEIDPVKERLIRAGFEQISISVQRRIYDIPDIRAFARGLIFSPIINEIRERGEVDPDDIVEALVKIFIGEYGSNPTRFPMQAILFETEKPLEHHHHHH”, “not soluble”; that for “MGSDKIHHHHHHMENESKLVEVDEKHLQFRVAREAFVSEQILSGEYEKIFDRCWLYVGHVSEFSKPGDFVTRTIARRNLLVTMGTDNRINAFFNTCPHRGATVCRDRAGNSKNFQCFYHGWVFGCDGNLKSQPGKDRYCADFIASGAGNLVSVPRFDIYAGFCFVSFNAEVEPLPDYLAGAKEYLDLVSRYSESGMAISSGTQEYAIRANWKLLVENSVDGYHAVSTHATYLDYLKNTNGSLSSTKLEGTSYDLGNGHAVLEYTAPWGRPIASWVPLWGEQGKKEIDQIYARLVELHGEDMADRMAHKNRNLLIFPNLVVNDIMAITVRTFYPQAPNYMLVNGWSLAPREESEWAKKFRLSNFLEFLGPGGFATPDDVEALESCQNGFSNYRLVPWSDISKGMGKASPNYDDELQMRAFWTRWNQYISGSPSPQATIRRLPSATAA”, “not soluble”.

For “SLRSFEAPNGVAFASIGDTGAANSNQAKCGISLAALSVALDIKFVNLLGDNLYPHGVTSAVDPLWQSAFEVPFGAPSLQKVAFFPVLGNHDYHLDPYAQIDRCIRLGNEHLNFTEKEKTDGSRPQLSKTYQMQAMLPWMKIHHEKFRYSFDQTTKMHGLDGPRWRLPNFWYFTRHVFRNVPRHVKNPFVTGASISDISLVSTEEDKTDVTVVTIYIDSMVLLLEEGSKSSSIRYRFPRDELYYRHLEFLEDTLKAATREADWIFIAGHHPVVNYSVRNAKPSDFAVRLTELMRKYKVDTFLSGHEHALSFFQEPDANTTHIISGTGSKLSARDPIPSKDCLFSVREHGVAVHVLGKEELHHGFVSADGKVLFTASQRRQDRT”, the “soluble on expression in E. coli” value is on record as “soluble”.
